Data from patent US20230416396A1 (Regeneron, published 2023).
One block for each binder: values may come before it.

Legend:
[1] = target: T1, human 4-1BB on cells (human, UniProt Q07011 24-255); test: cell-based or functional assay
[2] = target: T1, human 4-1BB on cells; test: cell-based or functional assay; remark: listed apart in the source
[3] = target: T1, human 4-1BB on cells; test: cell-based or functional assay; remark: listed apart in the source
[4] = target: T2, human 4-1BB expressed with a C-terminal myc-myc-hexahistidine tag (human, UniProt Q07011 24-186); test: SPR Biacore 8k, antibody captured by anti-human Fc, h4-1BB.mmH as analyte, 25 C
T2 construct: also called h4-1BB.mmH; REGN3584; not shown: C-terminal myc-myc-hexahistidine tag
T2 sequence (Q07011 24-186 limits assumed): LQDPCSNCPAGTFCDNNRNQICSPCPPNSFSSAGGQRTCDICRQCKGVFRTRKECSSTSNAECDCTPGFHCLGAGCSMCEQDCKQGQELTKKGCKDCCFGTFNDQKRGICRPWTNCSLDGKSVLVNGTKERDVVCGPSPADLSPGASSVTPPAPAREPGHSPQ
Experimental: (§1) Equilibrium dissociation constants (KD values) for human 4-1BB expressed with a C-terminal myc-myc-hexahistidine tag (h4-1BB.mmH, REGN3584) or human 4-1BB expressed with a C-terminal murine Fc tag (h4-1BB.mFc, REGN3585) binding to purified anti-CD38×4-1BB 1+2 antibodies were determined using a real-time surface plasmon resonance biosensor using a Biacore 8k instrument. The CM5 Biacore sensor surface was derivatized by amine coupling with a monoclonal mouse anti-human Fc antibody (REGN2567). All Biacore binding studies were performed in a buffer composed of 0.01M HEPES pH 7.4, 0.15M NaCl, 3 mM EDTA, 0.05% v/v Surfactant P20 (HBS-EP running buffer). […] Antibody-reagent association was monitored for 5 minutes while dissociation in HBS-EP running buffer was monitored for 10 minutes. At the end of each cycle, the anti-CD38×4-1BB 1+2 antibody capture surface was regenerated using a 10 second injection of 20 mM phosphoric acid. All binding kinetics experiments were performed at 25° C.
(§2) Kinetic association (kₐ) and dissociation (kd) rate constants were determined by fitting the real-time sensorgrams to a 1:1 binding model using Cytiva Insight curve fitting software. Binding dissociation equilibrium constants (KD) and dissociative half-lives (t/2) were calculated from the kinetic rate constants as: […]

[5] = target: T3, human 4-1BB expressed with a C-terminal murine Fc tag (human, UniProt Q07011 24-186); test: SPR Biacore 8k, antibody captured by anti-human Fc, h4-1BB.mFc as analyte, 25 C
T3 construct: also called h4-1BB.mFc; REGN3585; not shown: C-terminal murine Fc tag
T3 sequence (Q07011 24-186 limits assumed): as above
Experimental: as §1, §2

[6] = target: T3, human 4-1BB expressed with a C-terminal …; test: SPR Biacore 4000, h4-1BB.mFc captured by anti-mouse Fc, antibody as analyte, 25 C
Experimental: Equilibrium dissociation constants (KD values) for human 4-1BB expressed with a C-terminal murine Fc tag (h4-1BB.mFc, REGN3585) binding to purified anti-CD38×4-1BB 1+2 antibodies were determined using a real-time surface plasmon resonance biosensor using a Biacore 4000 instrument. […] All Biacore binding studies were performed in a buffer composed of 0.01M HEPES pH 7.4, 0.15M NaCl, 3 mM EDTA, 0.05% v/v Surfactant P20 (HBS-EP running buffer). Different concentrations of CD38×4-1BB 1+2 constructs prepared in HBS-EP running buffer (ranging from 100 to 6.25 nM in 4-fold serial dilutions) were injected over the h4-1BB.mFc (REGN3585) captured surface at a flow rate of 30 μL/minute. Antibody-reagent association was monitored for 5 minutes while dissociation in HBS-EP running buffer was monitored for 10 minutes. At the end of each cycle, the h4-1BB.mFc capture surface was regenerated using a 40 sec injection of 10 mM glycine, pH 1.5. All binding kinetics experiments were performed at 25° C.
as §2

T1 sequence (Q07011 24-255): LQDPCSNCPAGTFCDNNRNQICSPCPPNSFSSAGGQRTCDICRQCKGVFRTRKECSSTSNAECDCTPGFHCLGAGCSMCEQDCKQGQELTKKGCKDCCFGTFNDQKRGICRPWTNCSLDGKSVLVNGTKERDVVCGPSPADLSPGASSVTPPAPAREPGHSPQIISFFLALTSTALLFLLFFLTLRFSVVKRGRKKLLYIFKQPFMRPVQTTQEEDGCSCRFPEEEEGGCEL

EC50 of IL-2 release, T cells + HEK293/CD20/CD38 + REGN2281 [1]: 0.0607 nM
EC50 of IL-2 release, T cells + MOLP-8 + REGN5458 [1]: 0.133 nM
EC50 of IL-2 release, T cells + NALM-6 [1]: 0.0717 nM
MAX IL-2 release, T cells + HEK293/CD20 + REGN2281 [1]: 52 pg/mL
MAX IL-2 release, T cells + HEK293/CD20/CD38 + REGN2281 [1]: 912 pg/mL
MAX IL-2 release, T cells + MOLP-8 + IsoC [1]: 96 pg/mL
MAX IL-2 release, T cells + MOLP-8 + REGN5458 [1]: 79 pg/mL
MAX IL-2 release, T cells + NALM-6 [1]: 205 pg/mL
EC50 of IFNγ release, T cells + HEK293/CD20/CD38 + REGN2281 [2]: 0.0526 nM
EC50 of IFNγ release, T cells + MOLP-8 + REGN5458 [2]: 0.0725 nM
EC50 of IFNγ release, T cells + NALM-6 [2]: 0.0419 nM
MAX IFNγ release, T cells + HEK293/CD20 + REGN2281 [2]: 1570 pg/mL
MAX IFNγ release, T cells + HEK293/CD20/CD38 + REGN2281 [2]: 5270 pg/mL
MAX IFNγ release, T cells + MOLP-8 + IsoC [2]: 161 pg/mL
MAX IFNγ release, T cells + MOLP-8 + REGN5458 [2]: 3410 pg/mL
MAX IFNγ release, T cells + NALM-6 [2]: 658 pg/mL
EC50 of luciferase activity, HEK293/NFkB-Luc/h4-1BB reporter + OPM2 [3]: 0.0219 nM
MAX luciferase activity, HEK293/NFkB-Luc/h4-1BB reporter + HEK293/CD20 [3]: 1e+06 RLU
MAX luciferase activity, HEK293/NFkB-Luc/h4-1BB reporter + HEK293/CD20/CD38 [3]: 2.4e+06 RLU
MAX luciferase activity, HEK293/NFkB-Luc/h4-1BB reporter + MOLP-8 [3]: 2.2e+06 RLU
MAX luciferase activity, HEK293/NFkB-Luc/h4-1BB reporter + OPM2 [3]: 2.1e+06 RLU
100 nM h4-1BB.mmH Bind (RU) [4]: 107 RU
Kd [4]: 13.8 nM
koff [4]: 0.00494 s⁻¹
kon [4]: 358000 M⁻¹ s⁻¹
t½ [4]: 2.3 min
100 nM h4-1BB.mFc Bind (RU) [5]: 283 RU
Kd [5]: 0.86 nM
koff [5]: 0.000177 s⁻¹
kon [5]: 206000 M⁻¹ s⁻¹
t½ [5]: 65.3 min
100 nM Ab Bind (RU) [6]: 234 RU
Kd [6]: 0.716 nM
koff [6]: 0.000308 s⁻¹
kon [6]: 430000 M⁻¹ s⁻¹
t½ [6]: 37.6 min
B1: REGN9682 (bispecific antibody, human IgG4 S228P, kappa)
heavy 1: EVQLVESGGGLVQPGRSLRLSCGASGFTFDDYVMHWVRQIPGKGLEWVAGISWNSGSIGYADSVKGRFTISRDNAKNSLYLQMNSLRAEDTALYFCAKDHIDPYSSSLYYYYGMDVWGQGTTVTVSSASTKGPSVFPLAPCSRSTSESTAALGCLVKDYFPEPVTVSWNSGALTSGVHTFPAVLQSSGLYSLSSVVTVPSSSLGTKTYTCNVDHKPSNTKVDKRVGGGGSGGGGSGGGGSEVQLVESGGGLVQPGRSLRLSCGASGFTFDDYVMHWVRQIPGKGLEWVAGISWNSGSIGYADSVKGRFTISRDNAKNSLYLQMNSLRAEDTALYFCAKDHIDPYSSSLYYYYGMDVWGQGTTVTVSSASTKGPSVFPLAPCSRSTSESTAALGCLVKDYFPEPVTVSWNSGALTSGVHTFPAVLQSSGLYSLSSVVTVPSSSLGTKTYTCNVDHKPSNTKVDKRVESKYGPPCPPCPAPPVAGPSVFLFPPKPKDTLMISRTPEVTCVVVDVSQEDPEVQFNWYVDGVEVHNAKTKPREEQFNSTYRVVSVLTVLHQDWLNGKEYKCKVSNKGLPSSIEKTISKAKGQPREPQVYTLPPSQEEMTKNQVSLTCLVKGFYPSDIAVEWESNGQPENNYKTTPPVLDSDGSFFLYSRLTVDKSRWQEGNVFSCSVMHEALHNRFTQKSLSLSPGK
heavy 2: EVQLVESGGGLVQPGRSLRLSCAASGFTFDDYAMHWVRQAPGKGLEWVSGISWKSDNIGYADSVKGRFTISRDNAKNSLYLQMNSLRAEDTALYYCAKALGGWKFDYYYGMDVWGQGTTVTVSSASTKGPSVFPLAPCSRSTSESTAALGCLVKDYFPEPVTVSWNSGALTSGVHTFPAVLQSSGLYSLSSVVTVPSSSLGTKTYTCNVDHKPSNTKVDKRVESKYGPPCPPCPAPPVAGPSVFLFPPKPKDTLMISRTPEVTCVVVDVSQEDPEVQFNWYVDGVEVHNAKTKPREEQFNSTYRVVSVLTVLHQDWLNGKEYKCKVSNKGLPSSIEKTISKAKGQPREPQVYTLPPSQEEMTKNQVSLTCLVKGFYPSDIAVEWESNGQPENNYKTTPPVLDSDGSFFLYSRLTVDKSRWQEGNVFSCSVMHEALHNHYTQKSLSLSLGK
light: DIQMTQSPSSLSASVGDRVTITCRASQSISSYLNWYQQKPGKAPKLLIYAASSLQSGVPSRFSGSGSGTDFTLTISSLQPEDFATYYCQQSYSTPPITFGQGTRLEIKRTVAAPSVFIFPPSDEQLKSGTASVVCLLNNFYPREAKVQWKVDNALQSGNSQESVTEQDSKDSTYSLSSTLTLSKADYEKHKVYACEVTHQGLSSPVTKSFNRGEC
notes: 1+2 format, hIgG4P-PVA; The linker between the two 4-1BB Fabs is (G4S)3; also called CD38x4-1BB (1 + 2), (G4S)3; 26812P2 x 35333P2 (IN) + 35333P2 (OUT)

EC50 of IL-2 release, T cells + HEK293/CD20/CD38 + REGN2281 [1]: 0.0453 nM
EC50 of IL-2 release, T cells + MOLP-8 + IsoC [1]: 0.0361 nM
EC50 of IL-2 release, T cells + MOLP-8 + REGN5458 [1]: 0.0833 nM
EC50 of IL-2 release, T cells + NALM-6 [1]: 0.0723 nM
MAX IL-2 release, T cells + HEK293/CD20 + REGN2281 [1]: 57 pg/mL
MAX IL-2 release, T cells + HEK293/CD20/CD38 + REGN2281 [1]: 709 pg/mL
MAX IL-2 release, T cells + MOLP-8 + IsoC [1]: 90 pg/mL
MAX IL-2 release, T cells + MOLP-8 + REGN5458 [1]: 62 pg/mL
MAX IL-2 release, T cells + NALM-6 [1]: 169 pg/mL
EC50 of IFNγ release, T cells + HEK293/CD20/CD38 + REGN2281 [2]: 0.0874 nM
EC50 of IFNγ release, T cells + MOLP-8 + REGN5458 [2]: 0.102 nM
MAX IFNγ release, T cells + HEK293/CD20 + REGN2281 [2]: 1450 pg/mL
MAX IFNγ release, T cells + HEK293/CD20/CD38 + REGN2281 [2]: 6820 pg/mL
MAX IFNγ release, T cells + MOLP-8 + IsoC [2]: 85 pg/mL
MAX IFNγ release, T cells + MOLP-8 + REGN5458 [2]: 3890 pg/mL
MAX IFNγ release, T cells + NALM-6 [2]: 651 pg/mL
EC50 of luciferase activity, HEK293/NFkB-Luc/h4-1BB reporter + OPM2 [3]: 0.018 nM
MAX luciferase activity, HEK293/NFkB-Luc/h4-1BB reporter + HEK293/CD20 [3]: 1.1e+06 RLU
MAX luciferase activity, HEK293/NFkB-Luc/h4-1BB reporter + HEK293/CD20/CD38 [3]: 2.4e+06 RLU
MAX luciferase activity, HEK293/NFkB-Luc/h4-1BB reporter + MOLP-8 [3]: 2.2e+06 RLU
MAX luciferase activity, HEK293/NFkB-Luc/h4-1BB reporter + OPM2 [3]: 2.1e+06 RLU
100 nM h4-1BB.mmH Bind (RU) [4]: 101 RU
Kd [4]: 14.8 nM
koff [4]: 0.00474 s⁻¹
kon [4]: 319000 M⁻¹ s⁻¹
t½ [4]: 2.4 min
100 nM h4-1BB.mFc Bind (RU) [5]: 267 RU
Kd [5]: 1.2 nM
koff [5]: 0.000205 s⁻¹
kon [5]: 171000 M⁻¹ s⁻¹
t½ [5]: 56.3 min
100 nM Ab Bind (RU) [6]: 232 RU
Kd [6]: 0.717 nM
koff [6]: 0.000337 s⁻¹
kon [6]: 470000 M⁻¹ s⁻¹
t½ [6]: 34.3 min
B2: REGN9686 (bispecific antibody, human IgG4 S228P, kappa)
heavy 1: EVQLVESGGGLVQPGRSLRLSCGASGFTFDDYVMHWVRQIPGKGLEWVAGISWNSGSIGYADSVKGRFTISRDNAKNSLYLQMNSLRAEDTALYFCAKDHIDPYSSSLYYYYGMDVWGQGTTVTVSSASTKGPSVFPLAPCSRSTSESTAALGCLVKDYFPEPVTVSWNSGALTSGVHTFPAVLQSSGLYSLSSVVTVPSSSLGTKTYTCNVDHKPSNTKVDKRVESKYGPPGGGGSGGGGSEVQLVESGGGLVQPGRSLRLSCGASGFTFDDYVMHWVRQIPGKGLEWVAGISWNSGSIGYADSVKGRFTISRDNAKNSLYLQMNSLRAEDTALYFCAKDHIDPYSSSLYYYYGMDVWGQGTTVTVSSASTKGPSVFPLAPCSRSTSESTAALGCLVKDYFPEPVTVSWNSGALTSGVHTFPAVLQSSGLYSLSSVVTVPSSSLGTKTYTCNVDHKPSNTKVDKRVESKYGPPCPPCPAPPVAGPSVFLFPPKPKDTLMISRTPEVTCVVVDVSQEDPEVQFNWYVDGVEVHNAKTKPREEQFNSTYRVVSVLTVLHQDWLNGKEYKCKVSNKGLPSSIEKTISKAKGQPREPQVYTLPPSQEEMTKNQVSLTCLVKGFYPSDIAVEWESNGQPENNYKTTPPVLDSDGSFFLYSRLTVDKSRWQEGNVFSCSVMHEALHNRFTQKSLSLSPGK
heavy 2: B1 heavy 2
light: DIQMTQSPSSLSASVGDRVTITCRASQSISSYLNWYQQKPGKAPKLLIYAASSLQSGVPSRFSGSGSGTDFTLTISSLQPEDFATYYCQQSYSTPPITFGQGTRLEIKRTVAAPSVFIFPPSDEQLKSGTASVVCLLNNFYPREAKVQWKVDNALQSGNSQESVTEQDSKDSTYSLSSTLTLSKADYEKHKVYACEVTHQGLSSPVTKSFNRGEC
notes: 1+2 format, hIgG4P-PVA; The linker between the two 4-1BB Fabs is (G4S)2; also called CD38x4-1BB (1 + 2), (G4S)2; 26812P2 x 35333P2 (IN) + 35333P2 (OUT)
